US20170327598A1 (published 2017)

Key:
[1] = biological target: commercially available anti-Stat3 antibody (Abcam, Cambridge, Mass.); experiment: ELISA, antibody coated at 1 µg/mL, secondary antibody 1:5,000, Experiment 3
human STAT3 = human STAT3 (human, UniProt P40763 1-770, limits assumed); experiment: SPR, Biacore 3000
human STAT3 (Biacore) = human STAT3 (Biacore) (human, UniProt P40763 1-770, limits assumed); experiment: SPR
[2] = biological target: human KRAS (normal human KRAS, full protein) (human, UniProt P01116-2 1-188, limits assumed); experiment: SPR, Biacore 3000
[3] = biological target: endogenous STAT3 of the murine 4T1 cell line (murine, UniProt P42227 2-770); experiment: immunoprecipitation from 4T1 lysate, Western blot
Sequence of endogenous STAT3 of the murine 4T1 cell line (P42227 2-770 limits assumed): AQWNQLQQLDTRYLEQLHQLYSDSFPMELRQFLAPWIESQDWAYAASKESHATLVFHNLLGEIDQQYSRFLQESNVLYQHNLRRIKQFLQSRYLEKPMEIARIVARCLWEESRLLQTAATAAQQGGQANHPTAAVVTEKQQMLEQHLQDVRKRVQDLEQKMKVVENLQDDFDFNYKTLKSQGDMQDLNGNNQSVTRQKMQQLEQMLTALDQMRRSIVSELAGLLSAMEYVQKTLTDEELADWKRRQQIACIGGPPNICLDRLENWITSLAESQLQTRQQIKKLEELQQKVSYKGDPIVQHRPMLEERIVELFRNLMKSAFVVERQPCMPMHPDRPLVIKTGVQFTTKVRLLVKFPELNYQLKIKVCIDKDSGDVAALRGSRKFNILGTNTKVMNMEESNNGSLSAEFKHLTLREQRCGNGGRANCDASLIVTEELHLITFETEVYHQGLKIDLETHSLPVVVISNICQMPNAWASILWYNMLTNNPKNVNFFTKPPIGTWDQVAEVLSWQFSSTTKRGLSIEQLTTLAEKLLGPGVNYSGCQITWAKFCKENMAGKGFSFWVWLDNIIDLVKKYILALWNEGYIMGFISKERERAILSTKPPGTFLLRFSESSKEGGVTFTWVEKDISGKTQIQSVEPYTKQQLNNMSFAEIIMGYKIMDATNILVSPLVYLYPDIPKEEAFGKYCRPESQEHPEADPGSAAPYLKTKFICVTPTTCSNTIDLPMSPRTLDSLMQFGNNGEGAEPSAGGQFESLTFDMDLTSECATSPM

his-probe (H-3) biotin labeled antibody
OD450 [1]: 0.018 OD450

B1: anti-KRAS (G12D) (SEQ ID NO:2) sdAb (VHH)
VHH: EVQLVESGGGSVQTGGSLRLSCAVSGNIGSSYCMGWFRQAPGKKREAVARIVRDGATGYADYVKGRFTISRDSAKNTLYLQMNRLIPEDTAIYYCAADLPPGCLTQAIWNFGYRGQGTLVTVSS
binding result (human STAT3): no binding (tested: 0-200 nM)

B2: anti-KRAS (G12D) (SEQ ID NO:2) sdAb (VHH)
VHH: EVQLVESGGGSVQTGGSLRLSCAVSGNIGSSYCMGWFRQAPGKKREAVARIVRDGATGYADYVKGRFTISRDSAKNTLYLQMNRLIPEDTAIYYCAADLPPGCLTQAIWNFGYRGQGTLVTVSS
binding result (human STAT3 (Biacore)): no binding

B3: anti-STAT3 VHH13 (SEQ ID NO:3) sdAb (VHH)
VHH: HVQLVESGGGSVQAGGSLRLSCAASGANGGRSCMGWFRQVPGKEREGVSGISTGGLITYYADSVKGRFTISQDNTKNTLYLQMNSLKPEDTAMYYCATSRFDCYRGSWFNRYMYNSWGQGTQVTVSS
Kd [2]: 126 nM

B4: anti-STAT3 VHH13 (SEQ ID NO:3) sdAb (VHH)
VHH: HVQLVESGGGSVQAGGSLRLSCAASGANGGRSCMGWFRQVPGKEREGVSGISTGGLITYYADSVKGRFTISQDNTKNTLYLQMNSLKPEDTAMYYCATSRFDCYRGSWFNRYMYNSWGQGTQVTVSS
binding result [3]: binds
